Measurements from publication PMC9984387, “The dynamic nature of netrin-1 and the structural basis for glycosaminoglycan fragment-induced filament formation” (Nature Communications, 2023).

Target: Gallus gallus NET1ΔC loop cd (R374A H375A K395A H399A R400A K401A) (Gallus gallus, UniProt Q90922 26-458, R374A | H375A | K395A | H399A | R400A | K401A)
Assay: ELISA; glypican-3 coated (0.5 µg/well); soluble NET1ΔC alone (0.5–500 nM, or 500 nM pre-incubated with HO-dp20 for competition); detection with polyclonal NET1 antibody
Settings: both partners purified

B1: glypican-3 (AF185614 aa 25-557 R357A) (domain or fragment)
chain: QPPPPPDATCHQVRSFFQRLQPGLKWVPETPVPGSDLQVCLPKGPTCCSRKMEEKYQLTARLNMEQLLQSASMELKFLIIQNAAVFQEAFEIVVRHAKNYTNAMFKNNYPSLTPQAFEFVGEFFTDVSLYILGSDINVDDMVNELFDSLFPVIYTQMMNPGLPESVLDINECLRGARRDLKVFGSFPKLIMTQVSKSLQVTRIFLQALNLGIEVINTTDHLKFSKDCGRMLTRMWYCSYCQGLMMVKPCGGYCNVVMQGCMAGVVEIDKYWREYILSLEELVNGMYRIYDMENVLLGLFSTIHDSIQYVQKNGGKLTTTIGKLCAHSQQRQYASAYYPEDLFIDKKILKVAHVEHEETLSSRRRELIQKLKSFINFYSALPGYICSHSPVAENDTLCWNGQELVERYSQKAARNGMKNQFNLHELKMKGPEPVVSQIIDKLKHINQLLRTMSVPKGKVLDKSLDEEGLESGDCGDDEDECIGSSGDGMVKVKNQLRFLAELAYDLDVDDAPGNKQHGNQKDNEITTSHSVGNM
modifications: three extended GAG chains are attached to the core protein
notes: Glypican-3, AF185614 aa 25-557; Heparan sulphate proteoglycan; also called GPC3; source: HEK 293 (sleeping beauty transposon system, BM40 signal peptide), purified (Strep-Tactin)
  binding result: binds
